In data set [1] the test system is zebrafish larvae (WT, zng1 mutant, metap1 mutant). Briefly: Zebrafish larval morphometry and gross pathology imaging. It counts as in vivo. How it is done: (§1) For all experiments larval zebrafish were bred naturally and collected into embryo media and were maintained at 28° C. on a 14/10 h light/dark cycle for duration of experiments. For survival experiments, zebrafish larvae were split into even densities into 6 or 12 multi-well plates in 5 mL or 1 mL embryo media respectively at 3 dpf. Stock solutions of METAP2 inhibitor TNP-470 (Sigma, T1455) and METAP1/2 inhibitor Bengamide B (Santa cruz, sc-397521A) were prepared in ACS-grade DMSO (Fisher Scientific, D136) and TPEN (Sigma, P4413) was prepared in ethanol and stored at −20° C. TNP-470, Bengamide B, and/or TPEN were applied into embryo media as well as a DMSO and/or ethanol vehicle controls at 3 dpf. Zebrafish survival was monitored daily until 6 dpf and all moribund or dead animals were removed. For qPCR experiments, larvae were split at 3 dpf into groups of 20-30 larvae in 20 mL of embryo media supplemented either 20 μM of TPEN or ethanol vehicle control. For imaging experiments, 6 dpf zebrafish larvae treated with 500 nM to 1 μM of Bengamide B or vehicle control were imaged by a Leica Thunder M205FCA stereomicroscope with a Leica DFC9000 GT camera.

Data set [2] concerns zebrafish larvae (WT and zng1^−/−). Description: Zebrafish larval survival under Metap inhibitor immersion. It counts as in vivo. How it is done:
as §1

In another data set the test system is TKPTS cells. Description: TKPTS cell proliferation by CellTrace flow cytometry. It is filed as cell-based, murine. How it is done:
TKPTS cells were seeding at 2,000 to 4,000 cells per well of 24- or 12-well tissue culture treated multi-well plates and incubated overnight at 37° C. Cells were staining with CellTRACE violet (Invitrogen, C34557) as described by manufacturer's protocol. Briefly, CellTRACE solution was prepared in PBS at a 1:1,000 dilution, added to the cells, and cells were incubated for 20 min at 37° C. Cells were then washed two times in cell culture media supplemented with 7% FBS, and replaced with fresh cell culture media supplemented with desired chemical treatments (3 μM TPA, Sigma, 723134; 5 μg/ml TNP470, Sigma, T1455; or 50 nM Bengamide B, Santa cruz, sc-397521A). Stock solutions of drugs were prepared in ACS-grade DMSO (Fisher Scientific, D136). […] After three days of growth, cells were stained with MitoTracker far-red (Invitrogen, M22426; 1:2500 dilution for 20 min at 37° C.) and MitoSOX red (Molecular probes, M36008: 1,1000 for 20 min at 37° C.) following manufacture's protocols. Cells were washed with PBS, trypsinized, and transferred to Eppendorf tubes prior to fixation in 4% PFA (Alfa aesar, J61899). Cells were fixed for 20 min at room temperature, centrifuged at 200×g for 10 min and washed with PBS prior to resuspension in 300 μl FACS buffer (2% FBS, 0.02% sodium azide in PBS). All flow cytometry data were collected using a BD LSRII flow cytometer with FACSDIVA software and analyzed using FlowJo (FlowJo LLC). Samples were gated forward scatter height (FSC-H) by forward scatter area (FSC-A) and side scatter height (SSC-H) by side scatter area (SSC-A) to remove doublet populations. The singlet population was gated SSC-A by FSC-A to isolate live cells. The resulting cell population was then assessed for assay-specific fluorescent markers and the median fluorescence intensity (MFI) quantified.

Another data set addresses T1, murine METAP1 (Mus musculus, UniProt Q8BP48).
T1 construct: final preparations of full-length METAP1 utilized in in vitro experiments in this study were purified, stripped of metal; 6xHis (N, cleaved yes); SUMO (N, cleaved yes); made in house; host or cells: E. coli BL21(DE3)
Description: Murine ZNG1 activation of METAP1 assay (Met release from MAHAIHY). It is filed as biochemical. How it is done: Methionine aminopeptidase activity was evaluated by quantifying the release of Met from the heptapeptide MAHAIHY (Genscript) as adapted from (Kabir-ud-Din, 2003). Reactions were conducted at 25° C. in 25 mM HEPES pH 7.4, 150 mM NaCl, 2 mM TCEP and consisted of 20 nM murine METAP1 with 0, 1, or 2 molar equivalents of Zn. Reactions were initiated with the addition of varying concentrations of MAHAIHY peptide. 50 μL aliquots were taken every 30 sec from 30-150 sec and the reaction was quenched with the addition of 10 μL glacial acetic acid (Supelco, Sigma-Aldrich). 60 μL of 4% w/v ninhydrin (Sigma-Aldrich) in 100% ACN was added to each quenched reaction and incubated at 37° C. for 1 h to detect free Met. The absorbance at 570 nm was measured and the cleaved Met concentration was determined from a standard curve of 10-500 μM Met. All data are reported as the average of triplicate measurements from each evaluated experimental condition. Midpoint and completed reactions were additionally analyzed by LC-ESI-MS to confirm the generation of the expected AHAIHY cleaved peptide product (FIG. 11 I).
Activation assays were performed in 25 mM HEPES pH 7.4, 150 mM KCl, 2 mM MgCl2, 2 mM TCEP. 250 μM NTA was included where indicated. 10 μM Zn2METAP1 was incubated with 25 μM apo or ZnZNG1 (ZNG1 loaded with 0.9 eq, 22.5 μM, Zn) at 37° C. for 1 h. Reactions were diluted 500-fold in 25 mM HEPES pH 7.4, 150 mM NaCl, 2 mM TCEP to a final concentration of 20 nM METAP1 and methionine aminopeptidase activity was assayed as described above by initiating the enzymatic reaction with addition of 750 μM MAHAIHY. When using GTP, GDP, or GDPNP, the activation reaction contained 500 μM of the indicated nucleotide. A control activation reaction of Zn-NTA contained 22.5 μM and 250 μM NTA in reaction buffer.

The target in the next data set is murine METAP1 1-59 (mouse, UniProt Q8BP48). Briefly: intrinsic Trp (W45) fluorescence quenching, 1:1 model. Here is the method: (§2) Peptide binding experiments were performed using an ISS PC1 spectrofluorometer at 25.0° C. Intrinsic Trp fluorescence was monitored using λₑₓ=292 nm nm and λₑₘ=350 nm, with quenching of the 350 nm emission maxima as aliquots of ZNG1 peptide were added. Different [METAP1_{1-59/1-79}] values were used for replicate experiments to better calculate the binding stoichiometry and analyzed globally. In a typical experiment, 5 μM METAP1_{1-59/1-79} in 2.5 mL were incubated for 10 min in chelexed buffer [25 mM HEPES (pH 7.4), 150 mM NaCl, and 2.5 mM TCEP], and aliquots of ZNG1 peptide were added. The equilibrium time was 2 min between subsequent additions of ZNG1 peptide. The peak emission intensities at 350 nm from triplicate experiments were globally fit to a 1:1 binding model using Dynafit (Kuzmic, 1996).
(§3) METAP1 binding of ZNG1 peptides was confirmed by monitoring quenching of W45 fluorescence in murine METAP1₁₋₅₉ and METAP1₁₋₇₉, upon addition of chemically synthesized N-terminal ZNG1 peptides from human, mouse, and zebrafish (FIGS. 2D,E and 9 I). […] Combined, these findings identify the specific regions of interaction between ZNG1 and METAP1.

The next data set deals with murine METAP1 1-79 (mouse, UniProt Q8BP48). The data set is described as above. Here is the method: as §2, §3
The target in a further data set is T2, zebrafish Metap1 (Danio rerio, UniProt Q4QRK0).
T2 construct: Full-length zebrafish metap1 was amplified from 6 dpf whole larval cDNA and cloned into pLM302; 6xHis (N); MBP (N); made in house; host or cells: E. coli BL21(DE3)
Briefly: Zebrafish Metap1 methionine aminopeptidase activity (HPLC endpoint). It counts as biochemical. As to conditions: 1 μM Dr Zng1 and 1 μM Metap1, 100 μM MAHAIHY. Here is the method: A single endpoint assay was used for these experiments. Reaction buffer (20 mM HEPES (pH 7.5), 150 mM NaCl) was chelex treated overnight at 4° C. 1 μM solutions of zebrafish Metap1 and Zng1 were made in reaction buffer. To strip Zn from the METAP1 active site, 3 μM of TPEN was incubated with 1 μM METAP1 at 4° C. for 1 h. To prepare holo-Zng1 (Zn bound), Zng1 was incubated with 10 μM of ZnCl2 for 1 h at 4° C. As a control, Metap1 was incubated with reaction buffer alone. Following the 1 h incubation, Zng1 and Metap1 were washed four times with chelex-treated reaction buffer using protein concentration columns (Amicon Ultra, UFC500396). After washes, proteins were mixed and incubated at 37° C. for 30 min. Following incubation, 100 μM of the synthetic peptide MAHAIHY (Genscript) was added to reactions and incubated for 90 min at 37° C. Reactions were stopped by the addition of a final concentration of 2% trifluoroacetic acid and samples were centrifuged at max speed for 5 min. […]
Twenty μL of each sample and standard was analyzed on an Agilent 1260 Infinity II system. […] MAHAIHY and AHAIHY were detected using absorbance at 280 nm, and retention times were confirmed using each standard. Methionine aminopeptidase relative activity was determined by calculating the percent of MAHAIHY converted to AHAIHY using the AUC values at 280 nm for each peptide.

The mark [3] stands for this setting: 10 μM Zn2METAP1, 25 μM ZNG1, no nucleotide.

For the molecule `CCCCCCCCCCCCCC(=O)O[C@H]1CC[C@H](NC(=O)[C@H](OC)[C@H](O)[C@@H](O)[C@H](O)/C=C/C(C)C)C(=O)N(C)C1` [Bengamide B], the “height at anterior anal fin (HAA)” value in data set [1] (WT larvae, 6 dpf, three days 500 nM vs vehicle) was “significantly reduced HAA”. In data set [1] (metap1 mutant larvae vs WT controls at 6 dpf, 1 μM), the “morphologic abnormalities (PCE, YSE, USB, CD)” value was “significantly higher morphologic abnormalities”. Besides, the survival result in data set [2] (WT control larvae, 1 μM inhibitor, three days of treatment) is “remained viable”. Besides, in data set [2] (zng1 mutant larvae, 1 μM inhibitor, three days of treatment), the lethality is reported as 100%. Also, in data set [2] (zng1 mutant larvae, co-treatment 500 nM Bengamide B and TPEN vs 500 nM Bengamide B alone), the viability result is “decreased viability”. Besides, the “proliferation (CellTrace)” value with TKPTS cells (WT TKPTS cells, 50 nM Bengamide B) is given as “reduced cellular proliferation”.

Consider `CO[C@@H]1[C@H](OC(=O)NC(=O)CCl)CC[C@]2(CO2)[C@H]1[C@@]1(C)O[C@@H]1CC=C(C)C` [TNP-470], for which the survival result was “more pronounced” in data set [2] (zng1 mutant larvae compared to WT, Zn-deplete conditions (TPEN)) and “decreased survival” in data set [2] (zng1 mutant larvae compared to WT, immersion, three days). Besides, the “proliferation (CellTrace)” value with TKPTS cells (Zng1^−/− cells relative to WT, 5 μg/ml TNP-470) is recorded as “slowed proliferation”.

On to “ApoZNG1: recombinant murine ZNG1 devoid of bound metal”, for which, in the data set with murine METAP1 (setting [3]), the “activation of Zn2METAP1” value was “no activation”.

Consider Hs ZNG1 N-terminal peptide, for which the equilibrium dissociation constant (Kd) in the data set with murine METAP1 1-59 and with murine METAP1 1-79 was 100 nM in each case.

For the molecule “Zebrafish Zng1: recombinant zebrafish Zng1, Zn bound (holo-Zng1)”, the apo-Metap1 activity result with zebrafish Metap1 is reported as “stimulates”.

Consider “ZnZNG1: recombinant murine ZNG1 loaded with 0.9 eq Zn at the high-affinity site”, for which the “activation of Zn2METAP1” value in the data set with murine METAP1 (setting [3]) is listed as “recovers small amounts of Zn4METAP1 activity”; with murine METAP1 (250 μM NTA, GDPNP), “no effect”; with murine METAP1 (250 μM NTA, GTP, above that of NTA-bound Zn) it was “significant activation”; with murine METAP1 (250 μM NTA, presence and absence of GDP) it was “only minor activation”; with murine METAP1 (in the presence of 500 μM GDP), “some ZnZNG1-dependent activation”; with murine METAP1 (in the presence of 500 μM GDPNP), “no activation”. Also, the “activation of Zn2METAP1” value with murine METAP1 (in the presence of 500 μM GTP) is recorded as “nearly fully activates”. For the same molecule, the “activation of Zn4METAP1” value in the data set with murine METAP1 (fully metalated Zn4METAP1, absence of nucleotide) is given as “no activation”.

As to Ac-MEDEDECPELVPIKEKPSGP-NH2 [Dr ZNG1 N-terminal peptide], the equilibrium dissociation constant (Kd) with murine METAP1 1-59 and with murine METAP1 1-79 was about 100 nM in each case.

For Ac-AEEEYAEDCPELVPIETKNQE-NH2 [Mm ZNG1 N-terminal peptide], the dissociation constant (Kd) in the data set with murine METAP1 1-59 and in the data set with murine METAP1 1-79 was about 100 nM in each case.

(Values after patent publication US20250304625A1, “ARTICLES AND METHODS FOR INHIBITING METHIONINE AMINOPEPTIDASE ACTIVITY” (Vanderbilt University, priority 2022, published 2025).)
